# Assay results as given in patent US20050136044A1, “Butyrylcholinesterase variants that alter the activity of chemotherapeutic agents” (priority 2003, published 2005).
# Residue numbers refer to the chain shown, from its start.
# B1: AME133 Fab (humanized anti-CD20 with fully human germline framework regions) (Fab, V domains shown)
# VH: EVQLVQSGAEVKKPGESLKISCKGSGRTFTSYNMHWVRQMPGKGLEWMGAIYPLTGDTSYNQKSKLQVTISADKSISTAYLQWSSLKASDTAMYYCARSTYVGGDWQFDVWGKGTTVTVSS
# VL: EIVLTQSPGTLSLSPGERATLSCRASSSVPYIHWYQQKPGQAPRLLIYATSALASGIPDRFSGSGSGTDFTLTISRLEPEDFAVYYCQQWLSNPPTFGQGTKLEIKR
# notes: also called monovalent Fab
# B2: wild-type butyrylcholinesterase (protein, UniProt P06276 29-602, looked up)
# Cholinesterase: EDDIIIATKNGKVRGMNLTVFGGTVTAFLGIPYAQPPLGRLRFKKPQSLTKWSDIWNATKYANSCCQNIDQSFPGFHGSEMWNPNTDLSEDCLYLNVWIPAPKPKNATVLIWIYGGGFQTGTSSLHVYDGKFLARVERVIVVSMNYRVGALGFLALPGNPEAPGNMGLFDQQLALQWVQKNIAAFGGNPKSVTLFGESAGAASVSLHLLSPGSHSLFTRAILQSGSFNAPWAVTSLYEARNRTLNLAKLTGCSRENETEIIKCLRNKDPQEILLNEAFVVPYGTPLSVNFGPTVDGDFLTDMPDILLELGQFKKTQILVGVNKDEGTAFLVYGAPGFSKDNNSIITRKEFQEGLKIFFPGVSEFGKESILFHYTDWVDDQRPENYREALGDVVGDYNFICPALEFTKKFSEWGNNAFFYYFEHRSSKLPWPEWMGVMHGYEIEFVFGLPLERRDNYTKAEEILSRSIVKRWANFAKYGNPNETQNNSTSWPVFKSTEQKYLTLNTESTRIMTKLRAQQCRFWTSFFPKVLEMTGNIDEAEWEWKAGFHRWNNYMMDWKNQFNDYTSKKESCVGL
# B3: 6-6 variant (protein)
# chain: B2 Cholinesterase with F227A, S287G, A328W, Y332M
# modifications: synthetic butyrylcholinesterase variant
# Legend:
# [1] = CPT-11 conversion to SN-38, fluorescent HPLC detection, conditioned media of transiently expressed BChE variants; type: biochemical; settings: for CPT-11 conversion to SN-38 (SN-38 formation by HPLC), in words: 20 mM CPT-11, 72 hours, 37° C., versus mock / wild-type
# Description: Butyrylcholinesterase variants were assayed for CPT-11 conversion activity using fluorescent High Performance Liquid Chromotography (HPLC) detection of SN-38 formation as described in Dodds and Rivory, Mol. Pharmacol. 56: 1346-1353 (1999), which is incorporated herein by reference. Briefly, conditioned media from transiently expressed BChE variants were exposed to 20 mM CPT-11 for 72 hours at 37° C. and analyzed by HPLC for SN-38 formation (peak at about 4 minutes column retention time).
# [2] = tested on: SW48 colon carcinoma cells; assay: MTT cytotoxicity assay of CPT-11 activated by BChE variants; settings: CPT-11 at 4 mM incubated 72 hours with enzyme, cells exposed at 0.5 mM for 72 hours, versus mock
# Description: Clinically relevant concentrations of CPT-11 (0.5-10 mM) were exposed to BChE variants for 24-72 hours at 37° C. Briefly, CPT-11 at 4 mM was incubated for 72 hours with expressed wild-type BChE, the 6-6 variant, or F227A/L286Q variant. SW48 colon carcinoma cells were exposed to the activated CPT-11 at a concentration of 0.5 mM for 72 hours and cell viability measured by the MTT method. The MTT (3-(4,5-dimethylthiazolyl-2)-2,5-diphenyltetrazolium bromide) assay is commercially available and can be used to measure cell viability based on the ability of a cell to reduce a redox sensitive dye. Note the 6-6 variant is a quadruple mutant referenced as A328W/Y332M/S287G/F227A (SEQ ID NO: 16) in the nomenclature used throughout to describe variants. The 6-6 variant contains the following codons at variant positions: GCG encodes alanine at amino acid position 227, GGT encodes glycine at amino acid position 287, ATG encodes methionine at amino acid position 332, and TGG encodes tryptophane at amino acid position 328.
# [3] = cited from earlier work
# [4] = in vitro; Pavillard et al. 2002; cited from earlier work
# CD20 = molecular target: T1, CD20 (human, UniProt P11836 1-297); assay: method not stated
# T1 construct: whole, on cells; also called CD20 cell surface antigen; CD20 on SKW 6.4 human B lymphoma cells
# T1 sequence (looked up): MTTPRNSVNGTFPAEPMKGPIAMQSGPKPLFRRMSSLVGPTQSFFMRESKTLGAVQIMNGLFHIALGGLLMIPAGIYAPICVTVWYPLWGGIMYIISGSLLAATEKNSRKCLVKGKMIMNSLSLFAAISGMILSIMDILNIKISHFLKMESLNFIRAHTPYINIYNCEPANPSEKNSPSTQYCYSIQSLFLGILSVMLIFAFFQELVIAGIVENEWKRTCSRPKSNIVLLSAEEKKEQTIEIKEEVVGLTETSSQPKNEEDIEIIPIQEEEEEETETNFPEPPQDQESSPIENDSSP
# [5] = o-nitrophenyl acetate (o-NPA) hydrolysis assay of antibody-captured butyrylcholinesterase variants (carboxylesterase activity); type: biochemical; settings: antibody capture/normalization, absorbance 405 nm
# Description: A modification of this assay that measures o-NPA activity of butyrylcholinesterase variants normalized by capturing with an anti-butyrylcholinesterase antibody was performed as described below.
# Protocol to Determine Carboxylesterase activity of Captured Butyrylcholinesterase by o-Nitrophenyl acetate: • 1) Coat 96-well Immulon 2 plates with rabbit anti-human butyrylcholinesterase (Dako #A0032) at 10 mg/ml in PBS (100 ml/well) overnight at 4° C. • 2) Remove coating solution and block plate with 3% BSA in PBS (250 ml/well) for 2 hours at room temperature. • 3) Add 200 ml butyrylcholinesterase variant conditioned media and incubate at RT for 2 hrs. • 4) Wash plate 3 times with 250 ml/well PBS. • 5) Add 85 ml/well 0.1 M potassium phosphate pH 7.0 • 6) Add 13.6 mg o-NPA to 100 ml acetonitrile, mix to dissolve. Add 100 ml of this stock to 6.3 mls water and mix well. • 7) Wash plate 3 times with PBS. • 8) Add 15 ml of diluted o-NPA substrate. • 9) Read absorbance at 405 nm.
# Conditioned media from butyrylcholinesterase variants that were transiently expressed in 293T cells was tested using the above described anti-butyrylcholinesterase antibody capture/normalization assay for carboxylesterase activity. […] The first variant shown in FIG. 1 is F227A (see left-most bar). The level of activity of the other variants can be compared to the level of activity of F227A. […]
# [6] = BChE-mediated CPT-11 hydrolysis, SN38 quantitated by reverse-phase HPLC with fluorescence detection; Km by Hofstee plot; type: biochemical; settings: 37° C., 24 hours, CPT-11 1-80 μM, Hofstee plot
# Description: BChE plasmid variants were expressed transiently in the human embryonic kidney cell line 293T and assayed for activity at 72 hours post-transfection. Primary screening of variants was performed by indirect measurement of enzymatic activation of CPT-11 (FIG. 2) in SW48 colon carcinoma cell cytotoxicity assays. […] Functional hits identified in these assays were characterized by sequence analysis of the corresponding DNA from the original preps. […] Enzyme was incubated at 37° C. for 24 hours with CPT-11 over a range of concentrations from 1-80 μM. […] Velocity (v) is in light absorbance units at 540 nm. Substrate concentration [s] is μM CPT-11.
# Samples were acidified and resolved by reverse-phase HPLC on a NovaPak C18 column to separate SN38 from unactivated CPT-11. SN38 peak area under the curve (AUC) was used to compare CPT-11 activation by the wild-type enzyme to the optimized BChE.4-1 variant.
molecule,measurement,setting,value
F227A/L286Q,Fold improvement in CPT-11 conversion,"[1]; compared to wild-type butyrylcholinesterase, conditioned media exposed to 20 mM CPT-11 for 72 hours at 37° C., SN-38 by HPLC, conservative values",>10 fold
same,"CPT-11 conversion to SN-38 (SN-38 formation by HPLC), in words",[1]; conditioned media,increased CPT-11 conversion to SN-38
same,CPT-11 mediated cytotoxicity in SW48 colon carcinoma cells,[2],increased tumor cell cytotoxicity
"CCc1c2c(nc3ccc(OC(=O)N4CCC(N5CCCCC5)CC4)cc13)-c1cc3c(c(=O)n1C2)COC(=O)[C@]3(O)CC [CPT-11, 7-ethyl-10-[4-(1-piperidino)-1-piperidine]carbonyloxycamptothecin]",plasma concentrations of CPT-11,"[3]; patients treated with 200 mg/m2 CPT-11, for at least 24 hours, Ducreux et al. 2003",above 0.1 μM
same,plasma peak concentration versus dose,[3]; single agent at up to 500 mg/m^2,dose-proportional
"CCc1c2c(nc3ccc(O)cc13)-c1cc3c(c(=O)n1C2)COC(=O)[C@]3(O)CC [SN38, 7-ethyl-10-hydroxycamptothecin]",cytotoxicity relative to CPT-11,[4],greater than 1000 fold
B1,Kd,CD20,1 nM
B2,level of carboxylesterase activity relative to F227A,[5],approximately 50%
same,conversion of CPT-11,"[1]; HPLC assay, conditioned media",less than 1%
same,"CPT-11 conversion to SN-38 (SN-38 formation by HPLC), in words",[1]; conditioned media,did not show detectable levels of SN-38
same,CPT-11 mediated cytotoxicity in SW48 colon carcinoma cells,[2],significantly enhanced
same,Km,[6],40 µM
B3,CPT-11 mediated cytotoxicity in SW48 colon carcinoma cells,[2],increased tumor cell cytotoxicity
